Source: patent publication US20090252683A1 (Amgen, published 2009)

T1: human EpCAM antigen on Kato III cells or human EpCAM transfected CHO cells (human, UniProt P16422 24-265)
T1 construct: 137 holds only the extracellular portion; the protein stood whole on cells
T1 sequence: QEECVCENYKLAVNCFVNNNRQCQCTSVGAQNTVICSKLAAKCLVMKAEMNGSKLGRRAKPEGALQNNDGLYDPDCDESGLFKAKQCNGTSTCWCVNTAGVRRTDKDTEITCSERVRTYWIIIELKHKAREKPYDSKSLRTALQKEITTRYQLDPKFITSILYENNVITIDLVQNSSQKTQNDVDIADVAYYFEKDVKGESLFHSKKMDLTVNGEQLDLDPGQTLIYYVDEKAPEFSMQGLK

T2: cynomolgus EpCAM antigen on transfected CHO cells (cynomolgus, UniProt Q1WER1 24-265 (rhesus entry))
T2 sequence: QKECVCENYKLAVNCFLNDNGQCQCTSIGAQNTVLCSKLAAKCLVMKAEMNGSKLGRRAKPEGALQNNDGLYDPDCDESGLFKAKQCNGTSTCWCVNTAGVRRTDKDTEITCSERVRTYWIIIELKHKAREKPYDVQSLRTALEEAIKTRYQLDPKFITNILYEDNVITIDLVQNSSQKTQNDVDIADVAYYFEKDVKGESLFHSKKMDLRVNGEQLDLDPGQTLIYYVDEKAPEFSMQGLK


Experiments:
[1] = target: T1, human EpCAM antigen on Kato III cells …; test: FACS, Kato III cells (FIG. 8A), anti-His detection
Source text: (§1) FIG. 8: FACS assay for binding of 2G8LH×SEQ ID NO. 12, 2G8LH×SEQ ID NO. 10, 2G8LH×SEQ ID NO. 16, 2G8LH×SEQ ID NO. 14, 2G8HL×SEQ ID NO. 12, 2G8HL×SEQ ID NO. 10, 2G8HL×SEQ ID NO. 16 and 2G8HL×SEQ ID NO. 14 on Kato III (FIG. 8A) cells or cynomolgus EpCAM transfected CHO cells (FIG. 8B) and HPB-ALL cells. Antigen binding was clearly detectable for the anti EpCAM specificities as well as for the anti CD3 specificities. As a negative control for binding to cynomolgus EpCAM, the 5-10LH×SEQ ID NO.
(§2) Binding of the bifunctional constructs from cell culture supernatants or binding of purified bifunctional constructs to the human EpCAM antigen on Kato III cells or cynomolgus EpCAM transfected CHO cells and to the CD3 antigen on HPB-ALL cells was tested using an FACS assay. For that purpose 2.5×10⁵ cells were incubated with 50 μl supernatant or with 5 μg/ml of the purified constructs in 50 μl PBS with 2% FCS. The binding of the constructs was detected with an anti-His antibody (Penta-His Antibody, BSA free, obtained from Qiagen GmbH, Hilden, FRG) at 2 μg/ml in 50 μl PBS with 2% FCS. […] The samples were measured on a FACSscan (BD biosciences, Heidelberg, FRG). Antigen binding was clearly detectable for the anti EpCAM specificities as well as for the anti CD3 specificities (see FIG. 8). As a negative control for binding to cynomolgus EpCAM, the 5-10LH×SEQ ID NO. […] The 5-10LH part only binds to human EpCAM.

[2] = target: T2, cynomolgus EpCAM antigen on transfected …; test: cell-based or functional assay
[3] = target: cynomolgus CD3 antigen on cynomolgus PBMC / macaque T cells (Macaca fascicularis (cynomolgus), UniProt Q95LI5 22-117; Q95LI7 23-110; Q95LI8 22-103); test: cell-based or functional assay
Chain of cynomolgus CD3 antigen on cynomolgus PBMC / macaque T cells (Q95LI5 22-117, chain 1 of 3): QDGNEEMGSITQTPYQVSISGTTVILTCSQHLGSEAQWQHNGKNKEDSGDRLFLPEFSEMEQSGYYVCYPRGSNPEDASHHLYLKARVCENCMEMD
Chain of cynomolgus CD3 antigen on cynomolgus PBMC / macaque T cells (Q95LI7 23-110, chain 2 of 3): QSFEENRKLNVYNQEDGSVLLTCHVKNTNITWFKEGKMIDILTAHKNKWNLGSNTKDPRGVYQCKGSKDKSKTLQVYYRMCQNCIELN
Chain of cynomolgus CD3 antigen on cynomolgus PBMC / macaque T cells (Q95LI8 22-103, chain 3 of 3): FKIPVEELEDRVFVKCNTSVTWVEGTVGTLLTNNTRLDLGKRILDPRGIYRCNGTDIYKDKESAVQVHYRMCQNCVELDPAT

[4] = target: T2, cynomolgus EpCAM antigen on transfected …; test: FACS, cynomolgus EpCAM transfected CHO cells (FIG. 8B), anti-His detection
Source text: as §1, §2

Binder | binding result [1] | EC50 (half maximal killing), FACS-based cytotoxicity, cynomolgus EpCAM transfected CHO target cells, cynomolgus PBMC effector cells [2] | EC50 (half maximal killing), FACS-based cytotoxicity, cynomolgus EpCAM transfected CHO target cells, human PBMC effector cells [2] | EC50 (half maximal killing), FACS-based cytotoxicity, cynomolgus EpCAM transfected CHO target cells, cynomolgus PBMC effector cells [3] | binding result [4]
2G8HL×SEQ ID NO. 12 bispecific single chain antibody (bispecific antibody) EVQLQQSGAELVRSGASVKLSCTASGFNIKDYYLHWVKQRPEQGLEWIAWIDLENGDIKYAPKFQGKATITADTSSNTAYLQLSSLTSEDTAVYYCNPYYYGSNYDYAMDYWGQGTSVTVSSGGGGSGGGGSGGGGSDVVMTQTPLTLSVTIGQPASISCKSSQSLLYSNGKTYLNWILQRPGQSPKRLIYLVSKLDSGVPDRFTGSGSGTDFTLKISRVEAEDLGVYYCVQGTHFPLTFGAGTKLELKSGGGGSQAVVTQESALTTSPGETVTLTCRSSTGAVTTSNYANWVQEKPDHLFTGLIGGTNKRAPGVPARFSGSLIGDKAALTITGAQTEDEAIYFCALWYSNLWVFGGGTKLTVLGGGGSGGGGSGGGGSEVKLLESGGGLVQPKGSLKLSCAASGFTFNTYAMNWVRQAPGKGLEWVARIRSKYNNYATYYADSVKDRFTISRDDSQSILYLQMNNLKTEDTAMYYCVRHGNFGNSYVSWFAYWGQGTLVTVSAHHHHHH | binds | 0.0603 µg/mL | 0.00364 µg/mL | 0.0603 µg/mL | 
2G8LH×SEQ ID NO. 16 bispecific single chain antibody (bispecific antibody) DVVMTQTPLTLSVTIGQPASISCKSSQSLLYSNGKTYLNWILQRPGQSPKRLIYLVSKLDSGVPDRFTGSGSGTDFTLKISRVEAEDLGVYYCVQGTHFPLTFGAGTKLELKGGGGSGGGGSGGGGSEVQLQQSGAELVRSGASVKLSCTASGFNIKDYYLHWVKQRPEQGLEWIAWIDLENGDIKYAPKFQGKATITADTSSNTAYLQLSSLTSEDTAVYYCNPYYYGSNYDYAMDYWGQGTSVTVSSGGGGSQVVLTQSPAIMSAFPGEKVTMTCSASSSVSYMNWYQQKSGTSPKRWIYDSSKLASGVPARFSGSGSGTSYSLTISSMETEDAATYYCQQWSRNPPTFGGGTKLQITGGGGSGGGGSGGGGSQVQLQQSGAELARPGASVKMSCKASGYTFTRSTMHWVKQRPGQGLEWIGYINPSSAYTNYNQKFKDKATLTADKSSSTAYMQLSSLTSEDSAVYYCASPQVHYDYNGFPYWGQGTLVTVSAHHHHHH | binds |  |  |  | binds
2G8LH×SEQ ID NO. 12 bispecific single chain antibody (bispecific antibody) DVVMTQTPLTLSVTIGQPASISCKSSQSLLYSNGKTYLNWILQRPGQSPKRLIYLVSKLDSGVPDRFTGSGSGTDFTLKISRVEAEDLGVYYCVQGTHFPLTFGAGTKLELKGGGGSGGGGSGGGGSEVQLQQSGAELVRSGASVKLSCTASGFNIKDYYLHWVKQRPEQGLEWIAWIDLENGDIKYAPKFQGKATITADTSSNTAYLQLSSLTSEDTAVYYCNPYYYGSNYDYAMDYWGQGTSVTVSSGGGGSQAVVTQESALTTSPGETVTLTCRSSTGAVTTSNYANWVQEKPDHLFTGLIGGTNKRAPGVPARFSGSLIGDKAALTITGAQTEDEAIYFCALWYSNLWVFGGGTKLTVLGGGGSGGGGSGGGGSEVKLLESGGGLVQPKGSLKLSCAASGFTFNTYAMNWVRQAPGKGLEWVARIRSKYNNYATYYADSVKDRFTISRDDSQSILYLQMNNLKTEDTAMYYCVRHGNFGNSYVSWFAYWGQGTLVTVSAHHHHHH | binds |  |  |  | binds
2G8HL×SEQ ID NO. 14 bispecific single chain antibody (bispecific antibody) EVQLQQSGAELVRSGASVKLSCTASGFNIKDYYLHWVKQRPEQGLEWIAWIDLENGDIKYAPKFQGKATITADTSSNTAYLQLSSLTSEDTAVYYCNPYYYGSNYDYAMDYWGQGTSVTVSSGGGGSGGGGSGGGGSDVVMTQTPLTLSVTIGQPASISCKSSQSLLYSNGKTYLNWILQRPGQSPKRLIYLVSKLDSGVPDRFTGSGSGTDFTLKISRVEAEDLGVYYCVQGTHFPLTFGAGTKLELKSGGGGSQVQLQQSGAELARPGASVKMSCKASGYTFTRSTMHWVKQRPGQGLEWIGYINPSSAYTNYNQKFKDKATLTADKSSSTAYMQLSSLTSEDSAVYYCASPQVHYDYNGFPYWGQGTLVTVSAGGGGSGGGGSGGGGSQVVLTQSPAIMSAFPGEKVTMTCSASSSVSYMNWYQQKSGTSPKRWIYDSSKLASGVPARFSGSGSGTSYSLTISSMETEDAATYYCQQWSRNPPTFGGGTKLQITHHHHHH | binds |  |  |  | binds
2G8LH×SEQ ID NO. 14 bispecific single chain antibody (bispecific antibody) DVVMTQTPLTLSVTIGQPASISCKSSQSLLYSNGKTYLNWILQRPGQSPKRLIYLVSKLDSGVPDRFTGSGSGTDFTLKISRVEAEDLGVYYCVQGTHFPLTFGAGTKLELKGGGGSGGGGSGGGGSEVQLQQSGAELVRSGASVKLSCTASGFNIKDYYLHWVKQRPEQGLEWIAWIDLENGDIKYAPKFQGKATITADTSSNTAYLQLSSLTSEDTAVYYCNPYYYGSNYDYAMDYWGQGTSVTVSSGGGGSQVQLQQSGAELARPGASVKMSCKASGYTFTRSTMHWVKQRPGQGLEWIGYINPSSAYTNYNQKFKDKATLTADKSSSTAYMQLSSLTSEDSAVYYCASPQVHYDYNGFPYWGQGTLVTVSAGGGGSGGGGSGGGGSQVVLTQSPAIMSAFPGEKVTMTCSASSSVSYMNWYQQKSGTSPKRWIYDSSKLASGVPARFSGSGSGTSYSLTISSMETEDAATYYCQQWSRNPPTFGGGTKLQITHHHHHH | binds |  |  |  | binds
2G8HL×SEQ ID NO. 10 bispecific single chain antibody (bispecific antibody) EVQLQQSGAELVRSGASVKLSCTASGFNIKDYYLHWVKQRPEQGLEWIAWIDLENGDIKYAPKFQGKATITADTSSNTAYLQLSSLTSEDTAVYYCNPYYYGSNYDYAMDYWGQGTSVTVSSGGGGSGGGGSGGGGSDVVMTQTPLTLSVTIGQPASISCKSSQSLLYSNGKTYLNWILQRPGQSPKRLIYLVSKLDSGVPDRFTGSGSGTDFTLKISRVEAEDLGVYYCVQGTHFPLTFGAGTKLELKSGGGGSEVKLLESGGGLVQPKGSLKLSCAASGFTFNTYAMNWVRQAPGKGLEWVARIRSKYNNYATYYADSVKDRFTISRDDSQSILYLQMNNLKTEDTAMYYCVRHGNFGNSYVSWFAYWGQGTLVTVSAGGGGSGGGGSGGGGSQAVVTQESALTTSPGETVTLTCRSSTGAVTTSNYANWVQEKPDHLFTGLIGGTNKRAPGVPARFSGSLIGDKAALTITGAQTEDEAIYFCALWYSNLWVFGGGTKLTVLHHHHHH | binds |  |  |  | binds
2G8HL×SEQ ID NO. 16 bispecific single chain antibody (bispecific antibody) EVQLQQSGAELVRSGASVKLSCTASGFNIKDYYLHWVKQRPEQGLEWIAWIDLENGDIKYAPKFQGKATITADTSSNTAYLQLSSLTSEDTAVYYCNPYYYGSNYDYAMDYWGQGTSVTVSSGGGGSGGGGSGGGGSDVVMTQTPLTLSVTIGQPASISCKSSQSLLYSNGKTYLNWILQRPGQSPKRLIYLVSKLDSGVPDRFTGSGSGTDFTLKISRVEAEDLGVYYCVQGTHFPLTFGAGTKLELKSGGGGSQVVLTQSPAIMSAFPGEKVTMTCSASSSVSYMNWYQQKSGTSPKRWIYDSSKLASGVPARFSGSGSGTSYSLTISSMETEDAATYYCQQWSRNPPTFGGGTKLQITGGGGSGGGGSGGGGSQVQLQQSGAELARPGASVKMSCKASGYTFTRSTMHWVKQRPGQGLEWIGYINPSSAYTNYNQKFKDKATLTADKSSSTAYMQLSSLTSEDSAVYYCASPQVHYDYNGFPYWGQGTLVTVSAHHHHHH | binds |  |  |  | binds
2G8LH×SEQ ID NO. 10 bispecific single chain antibody (bispecific antibody) DVVMTQTPLTLSVTIGQPASISCKSSQSLLYSNGKTYLNWILQRPGQSPKRLIYLVSKLDSGVPDRFTGSGSGTDFTLKISRVEAEDLGVYYCVQGTHFPLTFGAGTKLELKGGGGSGGGGSGGGGSEVQLQQSGAELVRSGASVKLSCTASGFNIKDYYLHWVKQRPEQGLEWIAWIDLENGDIKYAPKFQGKATITADTSSNTAYLQLSSLTSEDTAVYYCNPYYYGSNYDYAMDYWGQGTSVTVSSGGGGSEVKLLESGGGLVQPKGSLKLSCAASGFTFNTYAMNWVRQAPGKGLEWVARIRSKYNNYATYYADSVKDRFTISRDDSQSILYLQMNNLKTEDTAMYYCVRHGNFGNSYVSWFAYWGQGTLVTVSAGGGGSGGGGSGGGGSQAVVTQESALTTSPGETVTLTCRSSTGAVTTSNYANWVQEKPDHLFTGLIGGTNKRAPGVPARFSGSLIGDKAALTITGAQTEDEAIYFCALWYSNLWVFGGGTKLTVLHHHHHH | binds | 0.0398 µg/mL | 0.0011 µg/mL | 0.0398 µg/mL | 
